Two molecules from publication PMC4736438, “Cation–π Interactions Contribute to Substrate Recognition in γ‐Butyrobetaine Hydroxylase Catalysis” (Chemistry (Weinheim an Der Bergstrasse, Germany), 2015) can be followed below.

Data set [1] concerns the target T1, psBBOX (Pseudomonas sp. AK-1, UniProt P80193).
T1 construct: recombinant, purified on HisTrap and Superdex S200; metal-free buffer
T1 sequence (P80193 1-383): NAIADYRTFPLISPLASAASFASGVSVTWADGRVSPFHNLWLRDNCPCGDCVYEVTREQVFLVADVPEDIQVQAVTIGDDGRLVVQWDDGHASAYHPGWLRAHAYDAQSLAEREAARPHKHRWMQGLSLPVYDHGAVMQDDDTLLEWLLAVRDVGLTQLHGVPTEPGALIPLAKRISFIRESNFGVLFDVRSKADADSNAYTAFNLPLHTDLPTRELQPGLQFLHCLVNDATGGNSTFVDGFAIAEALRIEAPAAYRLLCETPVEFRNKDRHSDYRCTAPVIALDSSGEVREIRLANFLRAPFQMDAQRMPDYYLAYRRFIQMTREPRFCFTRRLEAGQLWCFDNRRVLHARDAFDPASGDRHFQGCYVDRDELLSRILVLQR
Nature of the data set: 1H NMR (CPMG) protein titration. The data set is classed as binding.

Substrate in data set [2]: C[N+](C)(C)CCCC(=O)[O-]
In words: LC-MS hydroxylation kinetics. The settings on record: […] psBBOX, […] FeSO4, […] 2OG, […] ascorbate, Tris pH […] K. The data set is classed as biochemical, Pseudomonas sp. AK-1. An excerpt: LC-MS hydroxylation kinetics on psBBOX

Turning to `C[N+](C)(C)CCCC(=O)[O-]` [compound 1, γBB], binding in data set [1] was characterised by a dissociation constant (Kd) of 5 µM.

B1: psBBOX (Pseudomonas sp. AK-1) (protein)
chain: NAIADYRTFPLISPLASAASFASGVSVTWADGRVSPFHNLWLRDNCPCGDCVYEVTREQVFLVADVPEDIQVQAVTIGDDGRLVVQWDDGHASAYHPGWLRAHAYDAQSLAEREAARPHKHRWMQGLSLPVYDHGAVMQDDDTLLEWLLAVRDVGLTQLHGVPTEPGALIPLAKRISFIRESNFGVLFDVRSKADADSNAYTAFNLPLHTDLPTRELQPGLQFLHCLVNDATGGNSTFVDGFAIAEALRIEAPAAYRLLCETPVEFRNKDRHSDYRCTAPVIALDSSGEVREIRLANFLRAPFQMDAQRMPDYYLAYRRFIQMTREPRFCFTRRLEAGQLWCFDNRRVLHARDAFDPASGDRHFQGCYVDRDELLSRILVLQR
notes: recombinant, purified on HisTrap and Superdex S200; metal-free buffer
As for B1, in data set [2], the Km turned out to be 1000 ± 210 µM, the Vmax worked out at 169 µM/min and the kcat came out at 7.02 ± 0.77 s⁻¹.

Broadly, the Kd is the constant that tells how readily two partners part at equilibrium. For orientation: Km means the concentration of substrate that gives half-maximal velocity. As a reminder, the Vmax is the top rate of the reaction or transport when substrate is in excess. One may read the kcat as the number of substrate molecules converted per active site and unit of time at saturation.
